Assay results from patent publication US11130793B2, “GLP-1/GLP-2 dual agonists” (Zealand Pharma A/S, priority 2016, dated 2021).
Square brackets hold non-standard residues; d marks the D form. Aib = CC(C)(N)C(=O)O

T1: human GLP-2 receptor (hGLP2-R) (human, UniProt O95838)
T1 sequence: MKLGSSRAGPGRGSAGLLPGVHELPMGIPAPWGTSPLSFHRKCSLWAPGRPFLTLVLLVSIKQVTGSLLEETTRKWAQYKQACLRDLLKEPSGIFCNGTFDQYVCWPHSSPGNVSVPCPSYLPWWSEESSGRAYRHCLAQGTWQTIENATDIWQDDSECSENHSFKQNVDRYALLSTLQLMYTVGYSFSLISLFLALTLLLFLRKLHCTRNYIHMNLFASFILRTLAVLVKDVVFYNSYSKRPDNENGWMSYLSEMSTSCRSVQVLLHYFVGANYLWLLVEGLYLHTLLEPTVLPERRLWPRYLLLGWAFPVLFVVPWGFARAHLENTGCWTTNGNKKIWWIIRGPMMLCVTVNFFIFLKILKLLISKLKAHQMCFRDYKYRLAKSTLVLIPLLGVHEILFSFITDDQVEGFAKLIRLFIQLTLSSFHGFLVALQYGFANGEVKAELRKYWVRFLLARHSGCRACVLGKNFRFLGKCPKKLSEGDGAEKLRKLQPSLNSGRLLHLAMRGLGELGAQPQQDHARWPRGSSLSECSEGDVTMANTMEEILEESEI


Legend:
[1] = biological target: T1, human GLP-2 receptor (hGLP2-R); experiment: cell-based or functional assay
[2] = biological target: human glucagon-like peptide 1 receptor (GLP-1R) (human, UniProt P43220); experiment: cell-based or functional assay

Binder	EC50 GLP-2 (nM); cAMP AlphaScreen [1]	EC50 GLP-1 (nM); cAMP AlphaScreen [2]
H-H[Aib]EGTFTSELATILDEQAARDFIAWLIQHKITD-OH (SMILES CC[C@H](C)[C@H](NC(=O)[C@H](Cc1ccccc1)NC(=O)[C@H](CC(=O)O)NC(=O)[C@H](CCCNC(=N)N)NC(=O)[C@H](C)NC(=O)[C@H](C)NC(=O)[C@H](CCC(N)=O)NC(=O)[C@H](CCC(=O)O)NC(=O)[C@H](CC(=O)O)NC(=O)[C@H](CC(C)C)NC(=O)[C@@H](NC(=O)[C@@H](NC(=O)[C@H](C)NC(=O)[C@H](CC(C)C)NC(=O)[C@H](CCC(=O)O)NC(=O)[C@H](CO)NC(=O)[C@@H](NC(=O)[C@H](Cc1ccccc1)NC(=O)[C@@H](NC(=O)CNC(=O)[C@H](CCC(=O)O)NC(=O)C(C)(C)NC(=O)[C@@H](N)Cc1c[nH]cn1)[C@@H](C)O)[C@@H](C)O)[C@@H](C)O)[C@@H](C)CC)C(=O)N[C@@H](C)C(=O)N[C@@H](Cc1c[nH]c2ccccc12)C(=O)N[C@@H](CC(C)C)C(=O)N[C@H](C(=O)N[C@@H](CCC(N)=O)C(=O)N[C@@H](Cc1c[nH]cn1)C(=O)N[C@@H](CCCCN)C(=O)N[C@H](C(=O)N[C@H](C(=O)N[C@@H](CC(=O)O)C(=O)O)[C@@H](C)O)[C@@H](C)CC)[C@@H](C)CC) [Compound 15]	0.038 nM	0.005 nM
H-H[Aib]EGTFTSELATILDEQAARDFIAWLIKHKITD-OH (SMILES CC[C@H](C)[C@H](NC(=O)[C@H](Cc1ccccc1)NC(=O)[C@H](CC(=O)O)NC(=O)[C@H](CCCNC(=N)N)NC(=O)[C@H](C)NC(=O)[C@H](C)NC(=O)[C@H](CCC(N)=O)NC(=O)[C@H](CCC(=O)O)NC(=O)[C@H](CC(=O)O)NC(=O)[C@H](CC(C)C)NC(=O)[C@@H](NC(=O)[C@@H](NC(=O)[C@H](C)NC(=O)[C@H](CC(C)C)NC(=O)[C@H](CCC(=O)O)NC(=O)[C@H](CO)NC(=O)[C@@H](NC(=O)[C@H](Cc1ccccc1)NC(=O)[C@@H](NC(=O)CNC(=O)[C@H](CCC(=O)O)NC(=O)C(C)(C)NC(=O)[C@@H](N)Cc1c[nH]cn1)[C@@H](C)O)[C@@H](C)O)[C@@H](C)O)[C@@H](C)CC)C(=O)N[C@@H](C)C(=O)N[C@@H](Cc1c[nH]c2ccccc12)C(=O)N[C@@H](CC(C)C)C(=O)N[C@H](C(=O)N[C@@H](CCCCN)C(=O)N[C@@H](Cc1c[nH]cn1)C(=O)N[C@@H](CCCCN)C(=O)N[C@H](C(=O)N[C@H](C(=O)N[C@@H](CC(=O)O)C(=O)O)[C@@H](C)O)[C@@H](C)CC)[C@@H](C)CC) [Compound 16]	0.026 nM	0.006 nM
H-H[Aib]EGTFTSELATILDEQAARDFIAWLIRHKITD-OH (SMILES CC[C@H](C)[C@H](NC(=O)[C@H](Cc1ccccc1)NC(=O)[C@H](CC(=O)O)NC(=O)[C@H](CCCNC(=N)N)NC(=O)[C@H](C)NC(=O)[C@H](C)NC(=O)[C@H](CCC(N)=O)NC(=O)[C@H](CCC(=O)O)NC(=O)[C@H](CC(=O)O)NC(=O)[C@H](CC(C)C)NC(=O)[C@@H](NC(=O)[C@@H](NC(=O)[C@H](C)NC(=O)[C@H](CC(C)C)NC(=O)[C@H](CCC(=O)O)NC(=O)[C@H](CO)NC(=O)[C@@H](NC(=O)[C@H](Cc1ccccc1)NC(=O)[C@@H](NC(=O)CNC(=O)[C@H](CCC(=O)O)NC(=O)C(C)(C)NC(=O)[C@@H](N)Cc1c[nH]cn1)[C@@H](C)O)[C@@H](C)O)[C@@H](C)O)[C@@H](C)CC)C(=O)N[C@@H](C)C(=O)N[C@@H](Cc1c[nH]c2ccccc12)C(=O)N[C@@H](CC(C)C)C(=O)N[C@H](C(=O)N[C@@H](CCCNC(=N)N)C(=O)N[C@@H](Cc1c[nH]cn1)C(=O)N[C@@H](CCCCN)C(=O)N[C@H](C(=O)N[C@H](C(=O)N[C@@H](CC(=O)O)C(=O)O)[C@@H](C)O)[C@@H](C)CC)[C@@H](C)CC) [Compound 17]	0.066 nM	0.006 nM
H-H[Aib]EGTFTSELATILDEQAARDFIAWLISHKITD-OH (SMILES CC[C@H](C)[C@H](NC(=O)[C@H](Cc1ccccc1)NC(=O)[C@H](CC(=O)O)NC(=O)[C@H](CCCNC(=N)N)NC(=O)[C@H](C)NC(=O)[C@H](C)NC(=O)[C@H](CCC(N)=O)NC(=O)[C@H](CCC(=O)O)NC(=O)[C@H](CC(=O)O)NC(=O)[C@H](CC(C)C)NC(=O)[C@@H](NC(=O)[C@@H](NC(=O)[C@H](C)NC(=O)[C@H](CC(C)C)NC(=O)[C@H](CCC(=O)O)NC(=O)[C@H](CO)NC(=O)[C@@H](NC(=O)[C@H](Cc1ccccc1)NC(=O)[C@@H](NC(=O)CNC(=O)[C@H](CCC(=O)O)NC(=O)C(C)(C)NC(=O)[C@@H](N)Cc1c[nH]cn1)[C@@H](C)O)[C@@H](C)O)[C@@H](C)O)[C@@H](C)CC)C(=O)N[C@@H](C)C(=O)N[C@@H](Cc1c[nH]c2ccccc12)C(=O)N[C@@H](CC(C)C)C(=O)N[C@H](C(=O)N[C@@H](CO)C(=O)N[C@@H](Cc1c[nH]cn1)C(=O)N[C@@H](CCCCN)C(=O)N[C@H](C(=O)N[C@H](C(=O)N[C@@H](CC(=O)O)C(=O)O)[C@@H](C)O)[C@@H](C)CC)[C@@H](C)CC) [Compound 18]	0.054 nM	0.006 nM
H-H[Aib]EGTFTSELATILDEQAARDFIAWLIAQKITD-OH (SMILES CC[C@H](C)[C@H](NC(=O)[C@H](CC(C)C)NC(=O)[C@H](Cc1c[nH]c2ccccc12)NC(=O)[C@H](C)NC(=O)[C@@H](NC(=O)[C@H](Cc1ccccc1)NC(=O)[C@H](CC(=O)O)NC(=O)[C@H](CCCNC(=N)N)NC(=O)[C@H](C)NC(=O)[C@H](C)NC(=O)[C@H](CCC(N)=O)NC(=O)[C@H](CCC(=O)O)NC(=O)[C@H](CC(=O)O)NC(=O)[C@H](CC(C)C)NC(=O)[C@@H](NC(=O)[C@@H](NC(=O)[C@H](C)NC(=O)[C@H](CC(C)C)NC(=O)[C@H](CCC(=O)O)NC(=O)[C@H](CO)NC(=O)[C@@H](NC(=O)[C@H](Cc1ccccc1)NC(=O)[C@@H](NC(=O)CNC(=O)[C@H](CCC(=O)O)NC(=O)C(C)(C)NC(=O)[C@@H](N)Cc1c[nH]cn1)[C@@H](C)O)[C@@H](C)O)[C@@H](C)O)[C@@H](C)CC)[C@@H](C)CC)C(=O)N[C@@H](C)C(=O)N[C@@H](CCC(N)=O)C(=O)N[C@@H](CCCCN)C(=O)N[C@H](C(=O)N[C@H](C(=O)N[C@@H](CC(=O)O)C(=O)O)[C@@H](C)O)[C@@H](C)CC) [Compound 19]	0.15 nM	0.005 nM
H-H[Aib]EGTFTSELATILDEQAARDFIAWLIAYKITD-OH (SMILES CC[C@H](C)[C@H](NC(=O)[C@H](CC(C)C)NC(=O)[C@H](Cc1c[nH]c2ccccc12)NC(=O)[C@H](C)NC(=O)[C@@H](NC(=O)[C@H](Cc1ccccc1)NC(=O)[C@H](CC(=O)O)NC(=O)[C@H](CCCNC(=N)N)NC(=O)[C@H](C)NC(=O)[C@H](C)NC(=O)[C@H](CCC(N)=O)NC(=O)[C@H](CCC(=O)O)NC(=O)[C@H](CC(=O)O)NC(=O)[C@H](CC(C)C)NC(=O)[C@@H](NC(=O)[C@@H](NC(=O)[C@H](C)NC(=O)[C@H](CC(C)C)NC(=O)[C@H](CCC(=O)O)NC(=O)[C@H](CO)NC(=O)[C@@H](NC(=O)[C@H](Cc1ccccc1)NC(=O)[C@@H](NC(=O)CNC(=O)[C@H](CCC(=O)O)NC(=O)C(C)(C)NC(=O)[C@@H](N)Cc1c[nH]cn1)[C@@H](C)O)[C@@H](C)O)[C@@H](C)O)[C@@H](C)CC)[C@@H](C)CC)C(=O)N[C@@H](C)C(=O)N[C@@H](Cc1ccc(O)cc1)C(=O)N[C@@H](CCCCN)C(=O)N[C@H](C(=O)N[C@H](C(=O)N[C@@H](CC(=O)O)C(=O)O)[C@@H](C)O)[C@@H](C)CC) [Compound 20]	0.26 nM	0.012 nM
H-H[Aib]EGTFTSELATILDEQAARDFIAWLHQHKITD-OH (SMILES CC[C@H](C)[C@H](NC(=O)[C@H](Cc1ccccc1)NC(=O)[C@H](CC(=O)O)NC(=O)[C@H](CCCNC(=N)N)NC(=O)[C@H](C)NC(=O)[C@H](C)NC(=O)[C@H](CCC(N)=O)NC(=O)[C@H](CCC(=O)O)NC(=O)[C@H](CC(=O)O)NC(=O)[C@H](CC(C)C)NC(=O)[C@@H](NC(=O)[C@@H](NC(=O)[C@H](C)NC(=O)[C@H](CC(C)C)NC(=O)[C@H](CCC(=O)O)NC(=O)[C@H](CO)NC(=O)[C@@H](NC(=O)[C@H](Cc1ccccc1)NC(=O)[C@@H](NC(=O)CNC(=O)[C@H](CCC(=O)O)NC(=O)C(C)(C)NC(=O)[C@@H](N)Cc1c[nH]cn1)[C@@H](C)O)[C@@H](C)O)[C@@H](C)O)[C@@H](C)CC)C(=O)N[C@@H](C)C(=O)N[C@@H](Cc1c[nH]c2ccccc12)C(=O)N[C@@H](CC(C)C)C(=O)N[C@@H](Cc1c[nH]cn1)C(=O)N[C@@H](CCC(N)=O)C(=O)N[C@@H](Cc1c[nH]cn1)C(=O)N[C@@H](CCCCN)C(=O)N[C@H](C(=O)N[C@H](C(=O)N[C@@H](CC(=O)O)C(=O)O)[C@@H](C)O)[C@@H](C)CC) [Compound 21]	0.11 nM	0.049 nM
